Source: publication PMC2660415

Legend:
Test in all cases: SEC; gel filtration on Superdex 200 (AKTA-FPLC) followed by SDS-PAGE; P proteins released from GST by thrombin; P particles form a peak at ~830 kDa and the P dimer at ~69 kDa
[1] = biological target: Boxer (GI-8) norovirus P domain with C-terminal … peptide, wild type (P particle / P dimer) (norovirus strain Boxer (GI-8))
[2] = biological target: MOH (GII-5) norovirus P domain with C-terminal … peptide, wild type (P particle / P dimer) (norovirus strain MOH (GII-5))
[3] = biological target: Norwalk virus (GI-1) P domain with N-terminal CNGRC peptide, wild type (P particle / P dimer) (Norwalk virus (GI-1))
[4] = biological target: VA207 (GII-9) norovirus P domain with C-terminal … peptide, wild type (P particle / P dimer) (norovirus strain VA207 (GII-9))

Substance: Boxer (GI-8) norovirus P domain with C-terminal … peptide, wild type (P particle / P dimer) (domain or fragment)
- efficiency of P particle formation [1]: 80%

Substance: MOH (GII-5) norovirus P domain with C-terminal … peptide, wild type (P particle / P dimer) (domain or fragment)
- efficiency of P particle formation [2]: 80%

Substance: Norwalk virus (GI-1) P domain with N-terminal CNGRC peptide, wild type (P particle / P dimer) (domain or fragment)
- efficiency of P particle formation [3]: 70%

Substance: VA207 (GII-9) norovirus P domain with C-terminal … peptide, wild type (P particle / P dimer) (domain or fragment)
- efficiency of P particle formation [4]: 90%
